Experimental data published in publication PMC11922745, “Reconstitution of SPO11-dependent double-strand break formation” (Nature, 2024).

Tests used:
[1] = target: T1, Flag-tagged mouse SPO11 (β splicing isoform), wild type (mouse, UniProt Q9WTK8-1 1-396); assay: SEC; proteins co-expressed in FreeStyle 293-F cells; lysate (25 mM HEPES-NaOH pH 7.5, 500 mM NaCl) on anti-Flag M2 affinity gel, eluted with Flag peptide, then Superdex 200 Increase 10/300 GL; fractions on Coomassie-stained SDS-PAGE; details: partners not purified
T1 construct: mouse SPO11, β splicing isoform (includes exon 2), UniProt Q9WTK8-1, full-length optimized coding DNA; A TEV cleavage site lies between the Flag tag and SPO11; no cleavage is described; also called Flag–SPO11; mSPO11; not shown: Flag, N-terminal, kept
T1 sequence (looked up): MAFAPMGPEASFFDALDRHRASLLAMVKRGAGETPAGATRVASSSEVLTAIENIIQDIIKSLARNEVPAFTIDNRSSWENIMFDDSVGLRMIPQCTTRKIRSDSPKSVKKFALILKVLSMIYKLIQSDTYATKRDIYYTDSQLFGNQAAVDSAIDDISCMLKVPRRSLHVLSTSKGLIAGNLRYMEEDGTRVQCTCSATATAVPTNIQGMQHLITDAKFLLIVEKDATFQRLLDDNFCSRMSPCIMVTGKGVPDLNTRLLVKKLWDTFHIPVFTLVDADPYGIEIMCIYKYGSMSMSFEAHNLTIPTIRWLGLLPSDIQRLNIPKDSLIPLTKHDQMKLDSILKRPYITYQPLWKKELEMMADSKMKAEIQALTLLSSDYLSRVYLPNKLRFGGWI

[2] = target: T2, SPO11 (beta isoform);TOP6BL (Mus musculus;Mus musculus, UniProt Q9WTK8;J3QMY9 1-396;1-579, |); assay: EMSA; 5 mM Mg2+, 50 mM NaCl, 4 C; apparent Kd for first monomer; doubly bound complexes formed; Hairpin EMSA: 25 mM Tris-HCl pH 7.5, 100 mM NaCl, 5 mM MgCl2, 7.5% glycerol, 2 mM DTT, 1 mg/ml BSA, 0.1 nM DNA, 30 min 30 C; cleavage-oligo EMSA: 25 mM HEPES-NaOH pH 7.5, 50 mM NaCl, 5 mM MgCl2, 7.5% glycerol, 1 mg/ml BSA, 2 mM DTT, 4 C; details: protein: recombinant;recombinant; tags: N-terminal Flag-TEV;untagged; copies: 1;1; label: 32P (5' labelled, then ligated); closed dumbbell, 44 bp duplex with two A4 hairpin loops
T2 sequence 1: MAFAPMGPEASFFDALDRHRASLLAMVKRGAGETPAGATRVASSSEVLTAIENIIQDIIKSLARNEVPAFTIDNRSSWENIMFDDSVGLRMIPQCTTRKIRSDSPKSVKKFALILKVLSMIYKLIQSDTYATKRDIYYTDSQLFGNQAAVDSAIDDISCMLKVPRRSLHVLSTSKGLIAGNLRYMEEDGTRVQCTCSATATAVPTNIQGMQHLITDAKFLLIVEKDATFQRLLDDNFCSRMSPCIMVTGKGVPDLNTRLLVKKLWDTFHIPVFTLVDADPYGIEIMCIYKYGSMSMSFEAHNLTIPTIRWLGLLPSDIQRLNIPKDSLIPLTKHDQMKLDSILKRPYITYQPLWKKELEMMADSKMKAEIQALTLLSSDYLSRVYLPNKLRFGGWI
T2 sequence 2: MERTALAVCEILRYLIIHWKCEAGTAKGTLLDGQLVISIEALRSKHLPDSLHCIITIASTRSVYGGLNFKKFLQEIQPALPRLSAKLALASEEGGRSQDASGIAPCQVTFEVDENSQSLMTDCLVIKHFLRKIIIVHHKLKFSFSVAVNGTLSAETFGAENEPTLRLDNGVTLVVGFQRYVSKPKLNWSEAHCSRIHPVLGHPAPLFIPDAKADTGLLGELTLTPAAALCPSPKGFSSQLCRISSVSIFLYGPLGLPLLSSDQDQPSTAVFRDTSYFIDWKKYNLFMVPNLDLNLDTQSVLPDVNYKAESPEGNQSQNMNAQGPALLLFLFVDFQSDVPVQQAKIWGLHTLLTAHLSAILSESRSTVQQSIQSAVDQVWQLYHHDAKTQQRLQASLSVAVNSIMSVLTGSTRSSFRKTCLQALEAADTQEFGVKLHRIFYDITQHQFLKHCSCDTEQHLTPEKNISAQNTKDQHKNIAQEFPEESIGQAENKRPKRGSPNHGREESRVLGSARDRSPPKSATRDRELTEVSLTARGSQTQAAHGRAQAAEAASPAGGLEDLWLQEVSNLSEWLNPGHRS

[3] = target: T2, SPO11 (beta isoform);TOP6BL; assay: EMSA; double-end binding possible at 0.8 nM; Hairpin EMSA: 25 mM Tris-HCl pH 7.5, 100 mM NaCl, 5 mM MgCl2, 7.5% glycerol, 2 mM DTT, 1 mg/ml BSA, 0.1 nM DNA, 30 min 30 C; cleavage-oligo EMSA: 25 mM HEPES-NaOH pH 7.5, 50 mM NaCl, 5 mM MgCl2, 7.5% glycerol, 1 mg/ml BSA, 2 mM DTT, 4 C; details: protein: recombinant;recombinant; tags: N-terminal Flag-TEV;untagged; copies: 1;1; label: 5'-32P; 5' overhang 2 nt (TA) at both ends
[4] = target: T2, SPO11 (beta isoform);TOP6BL; assay: EMSA; double-end binding disfavoured at 0.8 nM, restored at higher protein; Hairpin EMSA: 25 mM Tris-HCl pH 7.5, 100 mM NaCl, 5 mM MgCl2, 7.5% glycerol, 2 mM DTT, 1 mg/ml BSA, 0.1 nM DNA, 30 min 30 C; cleavage-oligo EMSA: 25 mM HEPES-NaOH pH 7.5, 50 mM NaCl, 5 mM MgCl2, 7.5% glycerol, 1 mg/ml BSA, 2 mM DTT, 4 C; details: protein: recombinant;recombinant; tags: N-terminal Flag-TEV;untagged; copies: 1;1; label: 5'-32P; 5' overhang 2 nt (TA) at both ends

B1: mouse TOP6BL, untagged (natural protein, UniProt J3QMY9-1 1-579, looked up)
chain: MERTALAVCEILRYLIIHWKCEAGTAKGTLLDGQLVISIEALRSKHLPDSLHCIITIASTRSVYGGLNFKKFLQEIQPALPRLSAKLALASEEGGRSQDASGIAPCQVTFEVDENSQSLMTDCLVIKHFLRKIIIVHHKLKFSFSVAVNGTLSAETFGAENEPTLRLDNGVTLVVGFQRYVSKPKLNWSEAHCSRIHPVLGHPAPLFIPDAKADTGLLGELTLTPAAALCPSPKGFSSQLCRISSVSIFLYGPLGLPLLSSDQDQPSTAVFRDTSYFIDWKKYNLFMVPNLDLNLDTQSVLPDVNYKAESPEGNQSQNMNAQGPALLLFLFVDFQSDVPVQQAKIWGLHTLLTAHLSAILSESRSTVQQSIQSAVDQVWQLYHHDAKTQQRLQASLSVAVNSIMSVLTGSTRSSFRKTCLQALEAADTQEFGVKLHRIFYDITQHQFLKHCSCDTEQHLTPEKNISAQNTKDQHKNIAQEFPEESIGQAENKRPKRGSPNHGREESRVLGSARDRSPPKSATRDRELTEVSLTARGSQTQAAHGRAQAAEAASPAGGLEDLWLQEVSNLSEWLNPGHRS
notes: mouse TOP6BL, UniProt J3QMY9-1, untagged, optimized coding DNA
- stoichiometry N [1]: 1

B2: oligonucleotide cleavage substrate (44 bp, A4 loops at both ends) (structured_DNA)
DNA: CGGTTCAAAAGAACCGGAGCTGAATGAAGCCATACCAAACGACGAGCGTGACACAAAAGTGTCACGCTCGTCGTTTGGTATGGCTTCATTCAGCTC
modifications: covalently closed circle (ligated)
- Kd [2]: 1.8 nM

B3: 22 bp double-overhang duplex (dsDNA)
DNA 1: TAGCAATGTAATCGTCTATGACGT
DNA 2: TAACGTCATAGACGATTACATTGC
- binding result [3]: binds

B4: 23 bp double-overhang duplex (dsDNA)
DNA 1: TAGCAATGTAATCGTCTATGACGTT
DNA 2: TAAACGTCATAGACGATTACATTGC
- binding result [3]: binds

B5: 26 bp double-overhang duplex (dsDNA)
DNA 1: TAGCAATGTAATCGTCTATGACGTTAGC
DNA 2: TAGCTAACGTCATAGACGATTACATTGC
- binding result [4]: binds
